Laboratory results taken from the Human Domainome abundance scans (Beltran et al. 2025).

B1: POU domain, class 5, transcription factor 1, residues 134 to 212; numbered along this chain, Q01860 (parent)
chain: EESQDIKALQKELEQFAKLLKQKRITLGYTQADVGLTLGVLFGKVFSQTTICRFEALQLSFKNMCKLRPLLQKWVEEAD

Variants of: B1
Assay: abundance fitness (aPCA) (normalised: wild type 0, dead -1); higher = more abundant; growth selection in yeast, the domain comes from the species named
Details: Homo sapiens

Abundance fitness: each site, then its substitutions
L20: E -0.313; M -0.452; V -0.056; R -0.299; A -0.704; P -0.303; S -0.399; W -0.741
T37: M 0.116; G 0.296; K 0.082; F 0.319; Y -0.193; I -0.093; C -0.733; L -0.283; P -0.621; D 0.412; H 0.162; R 0.339; Q 0.394; A 0.345; E 0.681; S 0.153
L41: D -0.244; Q 0.048; G -0.934; A -0.695; E -0.224
L27: A -0.648; R -0.345; Y -0.358; H -0.387; W -0.185; P -0.274; D -0.185; M -0.188; I -0.051; C 0.039; S -0.724; E -0.842; Q -0.602; N -0.429; G -0.387; V -0.588; K -0.31
L19: T -0.49; W -0.181; C 0.164; Q 0.04; K 0.373; A -0.49; R -0.284; E -0.447; G -0.063
L36: D 0.112; V 0.002; R 0.235; W 0.249; A 0.273; T 0.293; M 0.168; I 0.311; C 0.111; S 0.105; N 0.144; E 0.155; K 0.087; Q 0.283; Y -0.037; P -0.6; G -0.306; F 0.013; H 0.362
A32: C -0.229; E -0.024; G -0.235; L -0.749; W -0.682; K 0.232; R 0.066; N -0.193; T -0.06; H -0.487; V -0.785
E14: R 0.063; D -0.533; Y 0.076; T -0.352; S -0.358; L -0.168; K 0.267; M -0.307; C -0.476; G -0.033; W -0.367; I 0.14; H -0.037; A 0.143; P -0.613; Q -0.05; F -0.056
G28: A -1.06; L -0.76; R -0.555; M -0.465; H 0.386; W -0.813; S -0.839; V -0.787; T -0.738; Q -0.389; N -0.34; K -0.569
Q22: F 0.56; H 0.027; S 0.268; A -0.151; R -0.092; M -0.189
G39: W -0.712; S -0.006; T -0.613; R -0.318; H -0.441; A -0.534; E -0.469; K -0.187; D -0.852; P -0.325; V -0.85
I25: K -0.131; E -0.207; L 0.249; R -0.078; V 0.264
T30: Q -0.664; A -0.667; S 0.082; R -0.249; H -0.437; E -1.06; M -0.526; V -0.392; L -0.853
K11: Y 0.067
F16: A -0.191; G -0.522; C -0.23; R -0.394; L -0.133; W -0.341; E -0.438; P -0.023
Q15: C -0.218; D 0.089; G 0.008; M -0.184; H -0.27; E 0.07; L -0.259; S -0.094; K -0.631; R -0.181; W -0.442; A 0.127; T -0.329
